Patent US20230357348A1 (AstraZeneca / MedImmune, published 2023)
Starred links: 1 amine or outer side, 2 acyl side, 3 side chain; linkers in the order of their positions; H or OH if unused. Non-standard residues stand in square brackets, D forms with d. Groups on a side chain read outwards from the residue. No end group written: not given here. *: point of attachment. C20 diacid = O=C(O)CCCCCCCCCCCCCCCCCCC(=O)*; C18 diacid = O=C(O)CCCCCCCCCCCCCCCCC(=O)*; γGlu = O=C(O)[C@H](CCC(=O)[*:2])N[*:1]; αMeF = C[C@](N)(Cc1ccccc1)C(=O)O; AEEA = NCCOCCOCC(=O)O; Aib = CC(C)(N)C(=O)O

Assays:
[1] = biological target: human GLP-1 receptor (hGLP-1R) (human, UniProt P43220 24-463); test: cell-based or functional assay
[2] = biological target: human glucagon receptor (hGCGR) (human, UniProt P47871 26-477); test: cell-based or functional assay
human glucagon receptor (hGCGR), sequence (P47871 26-477): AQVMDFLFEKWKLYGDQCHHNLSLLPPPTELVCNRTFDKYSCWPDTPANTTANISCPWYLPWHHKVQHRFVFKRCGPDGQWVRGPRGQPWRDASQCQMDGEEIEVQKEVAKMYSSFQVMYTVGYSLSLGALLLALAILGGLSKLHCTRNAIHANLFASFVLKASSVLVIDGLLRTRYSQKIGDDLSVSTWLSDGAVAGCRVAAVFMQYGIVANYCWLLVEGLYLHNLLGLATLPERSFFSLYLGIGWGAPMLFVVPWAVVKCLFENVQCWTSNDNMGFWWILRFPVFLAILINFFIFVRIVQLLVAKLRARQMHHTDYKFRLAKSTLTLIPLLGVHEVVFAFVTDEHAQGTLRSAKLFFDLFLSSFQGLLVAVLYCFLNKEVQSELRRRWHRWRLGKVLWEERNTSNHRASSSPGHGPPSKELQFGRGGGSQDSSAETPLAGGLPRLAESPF

B1: Peptide 148 (peptide)
peptide: H[Aib]QGTFTSDVSK[αMeF]LDSK([AEEA-AEEA-γGlu-C18 diacid])RAQDFVRWIAE[Aib]G-OH
modifications: N-terminus assumed
SMILES: CC[C@H](C)[C@H](NC(=O)[C@H](Cc1c[nH]c2ccccc12)NC(=O)[C@H](CCCNC(=N)N)NC(=O)[C@@H](NC(=O)[C@H](Cc1ccccc1)NC(=O)[C@H](CC(=O)O)NC(=O)[C@H](CCC(N)=O)NC(=O)[C@H](C)NC(=O)[C@H](CCCNC(=N)N)NC(=O)[C@H](CCCCNC(=O)COCCOCCNC(=O)COCCOCCNC(=O)CC[C@H](NC(=O)CCCCCCCCCCCCCCCCC(=O)O)C(=O)O)NC(=O)[C@H](CO)NC(=O)[C@H](CC(=O)O)NC(=O)[C@H](CC(C)C)NC(=O)[C@](C)(Cc1ccccc1)NC(=O)[C@H](CCCCN)NC(=O)[C@H](CO)NC(=O)[C@@H](NC(=O)[C@H](CC(=O)O)NC(=O)[C@H](CO)NC(=O)[C@@H](NC(=O)[C@H](Cc1ccccc1)NC(=O)[C@@H](NC(=O)CNC(=O)[C@H](CCC(N)=O)NC(=O)C(C)(C)NC(=O)[C@@H](N)Cc1c[nH]cn1)[C@@H](C)O)[C@@H](C)O)C(C)C)C(C)C)C(=O)N[C@@H](C)C(=O)N[C@@H](CCC(=O)O)C(=O)NC(C)(C)C(=O)NCC(=O)O
With B1 the “hGLP-1R EC50 (pM)” value [1] was 40.2 pM and the “hGluc-R EC50 (pM)” value [2] was 568 pM.

B2: Peptide 147 (peptide)
peptide: H[Aib]QGTFTSDVSK[αMeF]LDSK([AEEA-AEEA-γGlu-C18 diacid])RAQDFVRWLEA[Aib]G-OH
modifications: N-terminus assumed
SMILES: CC(C)C[C@H](NC(=O)[C@H](Cc1c[nH]c2ccccc12)NC(=O)[C@H](CCCNC(=N)N)NC(=O)[C@@H](NC(=O)[C@H](Cc1ccccc1)NC(=O)[C@H](CC(=O)O)NC(=O)[C@H](CCC(N)=O)NC(=O)[C@H](C)NC(=O)[C@H](CCCNC(=N)N)NC(=O)[C@H](CCCCNC(=O)COCCOCCNC(=O)COCCOCCNC(=O)CC[C@H](NC(=O)CCCCCCCCCCCCCCCCC(=O)O)C(=O)O)NC(=O)[C@H](CO)NC(=O)[C@H](CC(=O)O)NC(=O)[C@H](CC(C)C)NC(=O)[C@](C)(Cc1ccccc1)NC(=O)[C@H](CCCCN)NC(=O)[C@H](CO)NC(=O)[C@@H](NC(=O)[C@H](CC(=O)O)NC(=O)[C@H](CO)NC(=O)[C@@H](NC(=O)[C@H](Cc1ccccc1)NC(=O)[C@@H](NC(=O)CNC(=O)[C@H](CCC(N)=O)NC(=O)C(C)(C)NC(=O)[C@@H](N)Cc1c[nH]cn1)[C@@H](C)O)[C@@H](C)O)C(C)C)C(C)C)C(=O)N[C@@H](CCC(=O)O)C(=O)N[C@@H](C)C(=O)NC(C)(C)C(=O)NCC(=O)O
With B2 the “hGLP-1R EC50 (pM)” value [1] was 15.3 pM and the “hGluc-R EC50 (pM)” value [2] was 43.5 pM.

B3: Peptide 153 (peptide)
peptide: H[Aib]QGTFTSDVSK[αMeF]LDSK([AEEA-AEEA-γGlu-C20 diacid])RAQDFVRWLL[Aib]E-OH
modifications: N-terminus assumed
SMILES: CC(C)C[C@H](NC(=O)[C@H](Cc1c[nH]c2ccccc12)NC(=O)[C@H](CCCNC(=N)N)NC(=O)[C@@H](NC(=O)[C@H](Cc1ccccc1)NC(=O)[C@H](CC(=O)O)NC(=O)[C@H](CCC(N)=O)NC(=O)[C@H](C)NC(=O)[C@H](CCCNC(=N)N)NC(=O)[C@H](CCCCNC(=O)COCCOCCNC(=O)COCCOCCNC(=O)CC[C@H](NC(=O)CCCCCCCCCCCCCCCCCCC(=O)O)C(=O)O)NC(=O)[C@H](CO)NC(=O)[C@H](CC(=O)O)NC(=O)[C@H](CC(C)C)NC(=O)[C@](C)(Cc1ccccc1)NC(=O)[C@H](CCCCN)NC(=O)[C@H](CO)NC(=O)[C@@H](NC(=O)[C@H](CC(=O)O)NC(=O)[C@H](CO)NC(=O)[C@@H](NC(=O)[C@H](Cc1ccccc1)NC(=O)[C@@H](NC(=O)CNC(=O)[C@H](CCC(N)=O)NC(=O)C(C)(C)NC(=O)[C@@H](N)Cc1c[nH]cn1)[C@@H](C)O)[C@@H](C)O)C(C)C)C(C)C)C(=O)N[C@@H](CC(C)C)C(=O)NC(C)(C)C(=O)N[C@@H](CCC(=O)O)C(=O)O
For B3, the “hGLP-1R EC50 (pM)” value [1] was 41.2 pM and the “hGluc-R EC50 (pM)” value [2] was 99 pM.

B4: Peptide 151 (peptide)
peptide: H[Aib]QGTFTSDVSK[αMeF]LDSK([AEEA-AEEA-γGlu-C20 diacid])RAQDFVRWLL[Aib]TE-OH
modifications: N-terminus assumed
SMILES: CC(C)C[C@H](NC(=O)[C@H](Cc1c[nH]c2ccccc12)NC(=O)[C@H](CCCNC(=N)N)NC(=O)[C@@H](NC(=O)[C@H](Cc1ccccc1)NC(=O)[C@H](CC(=O)O)NC(=O)[C@H](CCC(N)=O)NC(=O)[C@H](C)NC(=O)[C@H](CCCNC(=N)N)NC(=O)[C@H](CCCCNC(=O)COCCOCCNC(=O)COCCOCCNC(=O)CC[C@H](NC(=O)CCCCCCCCCCCCCCCCCCC(=O)O)C(=O)O)NC(=O)[C@H](CO)NC(=O)[C@H](CC(=O)O)NC(=O)[C@H](CC(C)C)NC(=O)[C@](C)(Cc1ccccc1)NC(=O)[C@H](CCCCN)NC(=O)[C@H](CO)NC(=O)[C@@H](NC(=O)[C@H](CC(=O)O)NC(=O)[C@H](CO)NC(=O)[C@@H](NC(=O)[C@H](Cc1ccccc1)NC(=O)[C@@H](NC(=O)CNC(=O)[C@H](CCC(N)=O)NC(=O)C(C)(C)NC(=O)[C@@H](N)Cc1c[nH]cn1)[C@@H](C)O)[C@@H](C)O)C(C)C)C(C)C)C(=O)N[C@@H](CC(C)C)C(=O)NC(C)(C)C(=O)N[C@H](C(=O)N[C@@H](CCC(=O)O)C(=O)O)[C@@H](C)O
With B4 the “hGLP-1R EC50 (pM)” value [1] was 111 pM and the “hGluc-R EC50 (pM)” value [2] was 178 pM.

B5: Peptide 149 (peptide)
peptide: H[Aib]QGTFTSDVSK[αMeF]LDSK([AEEA-AEEA-γGlu-C18 diacid])RAQDFVRWVVE[Aib]G-OH
modifications: N-terminus assumed
SMILES: CC(C)C[C@H](NC(=O)[C@](C)(Cc1ccccc1)NC(=O)[C@H](CCCCN)NC(=O)[C@H](CO)NC(=O)[C@@H](NC(=O)[C@H](CC(=O)O)NC(=O)[C@H](CO)NC(=O)[C@@H](NC(=O)[C@H](Cc1ccccc1)NC(=O)[C@@H](NC(=O)CNC(=O)[C@H](CCC(N)=O)NC(=O)C(C)(C)NC(=O)[C@@H](N)Cc1c[nH]cn1)[C@@H](C)O)[C@@H](C)O)C(C)C)C(=O)N[C@@H](CC(=O)O)C(=O)N[C@@H](CO)C(=O)N[C@@H](CCCCNC(=O)COCCOCCNC(=O)COCCOCCNC(=O)CC[C@H](NC(=O)CCCCCCCCCCCCCCCCC(=O)O)C(=O)O)C(=O)N[C@@H](CCCNC(=N)N)C(=O)N[C@@H](C)C(=O)N[C@@H](CCC(N)=O)C(=O)N[C@@H](CC(=O)O)C(=O)N[C@@H](Cc1ccccc1)C(=O)N[C@H](C(=O)N[C@@H](CCCNC(=N)N)C(=O)N[C@@H](Cc1c[nH]c2ccccc12)C(=O)N[C@H](C(=O)N[C@H](C(=O)N[C@@H](CCC(=O)O)C(=O)NC(C)(C)C(=O)NCC(=O)O)C(C)C)C(C)C)C(C)C
With B5 the “hGLP-1R EC50 (pM)” value [1] was 8.71 pM and the “hGluc-R EC50 (pM)” value [2] was 2650 pM.

B6: Peptide 152 (peptide)
peptide: H[Aib]QGTFTSDVSK[αMeF]LDSK([AEEA-AEEA-γGlu-C18 diacid])RAQDFVRWLL[Aib]E-OH
modifications: N-terminus assumed
SMILES: CC(C)C[C@H](NC(=O)[C@H](Cc1c[nH]c2ccccc12)NC(=O)[C@H](CCCNC(=N)N)NC(=O)[C@@H](NC(=O)[C@H](Cc1ccccc1)NC(=O)[C@H](CC(=O)O)NC(=O)[C@H](CCC(N)=O)NC(=O)[C@H](C)NC(=O)[C@H](CCCNC(=N)N)NC(=O)[C@H](CCCCNC(=O)COCCOCCNC(=O)COCCOCCNC(=O)CC[C@H](NC(=O)CCCCCCCCCCCCCCCCC(=O)O)C(=O)O)NC(=O)[C@H](CO)NC(=O)[C@H](CC(=O)O)NC(=O)[C@H](CC(C)C)NC(=O)[C@](C)(Cc1ccccc1)NC(=O)[C@H](CCCCN)NC(=O)[C@H](CO)NC(=O)[C@@H](NC(=O)[C@H](CC(=O)O)NC(=O)[C@H](CO)NC(=O)[C@@H](NC(=O)[C@H](Cc1ccccc1)NC(=O)[C@@H](NC(=O)CNC(=O)[C@H](CCC(N)=O)NC(=O)C(C)(C)NC(=O)[C@@H](N)Cc1c[nH]cn1)[C@@H](C)O)[C@@H](C)O)C(C)C)C(C)C)C(=O)N[C@@H](CC(C)C)C(=O)NC(C)(C)C(=O)N[C@@H](CCC(=O)O)C(=O)O
In the case of B6, the “hGLP-1R EC50 (pM)” value [1] is reported as 11.9 pM and the “hGluc-R EC50 (pM)” value [2] is reported as 20.4 pM.

B7: Peptide 150 (peptide)
peptide: H[Aib]QGTFTSDVSK[αMeF]LDSK([AEEA-AEEA-γGlu-C18 diacid])RAQDFVQWLL[Aib]TE-OH
modifications: N-terminus assumed
SMILES: CC(C)C[C@H](NC(=O)[C@H](Cc1c[nH]c2ccccc12)NC(=O)[C@H](CCC(N)=O)NC(=O)[C@@H](NC(=O)[C@H](Cc1ccccc1)NC(=O)[C@H](CC(=O)O)NC(=O)[C@H](CCC(N)=O)NC(=O)[C@H](C)NC(=O)[C@H](CCCNC(=N)N)NC(=O)[C@H](CCCCNC(=O)COCCOCCNC(=O)COCCOCCNC(=O)CC[C@H](NC(=O)CCCCCCCCCCCCCCCCC(=O)O)C(=O)O)NC(=O)[C@H](CO)NC(=O)[C@H](CC(=O)O)NC(=O)[C@H](CC(C)C)NC(=O)[C@](C)(Cc1ccccc1)NC(=O)[C@H](CCCCN)NC(=O)[C@H](CO)NC(=O)[C@@H](NC(=O)[C@H](CC(=O)O)NC(=O)[C@H](CO)NC(=O)[C@@H](NC(=O)[C@H](Cc1ccccc1)NC(=O)[C@@H](NC(=O)CNC(=O)[C@H](CCC(N)=O)NC(=O)C(C)(C)NC(=O)[C@@H](N)Cc1c[nH]cn1)[C@@H](C)O)[C@@H](C)O)C(C)C)C(C)C)C(=O)N[C@@H](CC(C)C)C(=O)NC(C)(C)C(=O)N[C@H](C(=O)N[C@@H](CCC(=O)O)C(=O)O)[C@@H](C)O
In the case of B7, the “hGLP-1R EC50 (pM)” value [1] is reported as 166 pM and the “hGluc-R EC50 (pM)” value [2] is reported as 355 pM.
